B1: AUP1 (parent)
chain: FCASTRLPPTPLLLFPEEEATNGR

Variants of: B1
Assay: protein stability index of a GFP-peptide fusion (GPS, HEK-293T) (PSI 1-6); higher = more stable
Details: c terminus: a fixed tail appended
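Further: lentivirally expressed fusions sorted by FACS into six bins by GFP to DsRed ratio, PSI derived from sequencing read proportions per bin multiplied by bin number.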

Protein stability index, by site and new letter:
P9: F 1.58; V 2.62; C 2; S 2.82; Q 2.62; E 2.89; Y 2.03; W 2.97; H 2.56; N 2.84; R 2.3; D 2.74; G 2.78; I 2.43; T 2.46; K 2.67; M 1.84; A 2.59; L 2.11
P11: M 2.6; V 2.8; E 3.4; D 2.99; K 2.39; N 2.83; W 2.14; F 2.08; C 2.57; I 2.04; G 2.54; S 3.05; Q 2.58; R 2.06; T 2.74; A 2.39; Y 1.91; L 1.63; H 2.33
L12: E 4.1; H 2.87; S 3.47; I 2.58; D 3.72; R 3.12; G 2.87; C 2.95; K 3.6; Y 1.97; N 3.35; M 3.25; W 2.77; F 3.16; Q 3.7; V 3.31
E19: Y 2.69; D 2.68; R 2.05; P 2.38; F 1.73; V 2.33; Q 2.94; G 2.29; I 2.02; K 2.32; M 2.08; C 2.04; A 2.74; W 1.87; S 2.31; N 2.62; H 2.23; T 2.68; L 2.19
P8: A 2.48; T 2.94; K 2.09; W 2.27; D 2.92; H 2.33; Y 1.9; R 2.67; V 2.41; E 2.91; C 2.08; Q 3.19; S 2.84; G 2.66; N 2.66; M 2.57; F 2.43; L 1.96; I 2.3
L14: C 2.4; W 1.38; I 3; R 3.56; E 3.74; K 2.8; D 4.01; V 3.24; Y 2.59; N 3.61; M 3.29; F 2.14; G 2.66; T 3.41; P 3.48; H 3.49; S 3.44; A 3.58; Q 3.88
E18: S 2.12; N 2.37; Q 2.72; P 2.15; W 1.73; F 1.82; L 2.54; I 2.4; C 2.18; D 2.52; M 1.94; K 2.32; V 2.21; Y 2.07; R 2.23; G 2.54; A 2.19; H 2.15; T 2.2
L7: Q 3.16; E 3.24; K 2.89; V 3.31; M 3; R 2.63; W 1.51
N22: I 2.11; G 2.16; H 2.95; F 2.18; R 2.73; Q 3.18; A 2.87; W 2.27; M 2.56; K 2.75; Y 2.82; T 3.27; E 3.39; D 3.1; S 2.5; C 2.32; L 2.19; V 2.16
R24: H 2.76; E 3.4; D 3.3; N 3.01; M 2.38; K 3.12; F 2.39; T 3.24; I 2.46; G 3.69; A 3.27; S 3.01; Q 2.98; L 2.09; C 2.72; P 3
A20: K 2.93; C 2.38; W 2.15; Y 2.48; I 2.3; V 2.7; M 2.88; Q 2.96; P 2.75; T 2.97; S 3.21; R 2.77; H 2.81; E 3.51; L 2.72; F 2.21; N 2.43; G 2.79; D 3.12
G23: A 2.86; C 2.65; R 2.59; Q 3.09; K 2.62; E 3.33; V 2.91; D 3.33; H 2.82; I 2.19; N 2.97; T 2.76; M 2.54; S 2.94; L 2.67; W 1.69; F 2; Y 2.32; P 2.75
T10: L 2.23; N 2.92; V 2.39; S 2.8; Y 1.99; R 2.87; F 1.32; I 2.52; C 2.33; H 1.68; G 2.53; Q 3.13; A 3.13; E 3.23; D 2.84; K 3.04; W 2.33; M 2.28
E17: N 2.55; R 1.96; M 2.51; A 1.96; T 1.62; D 2.7; V 2.09; I 1.93; C 1.52; L 1.5; W 1.7; Y 2.47; S 1.8; G 2.31; K 2.25; Q 2.28; F 1.83
R6: L 2.73; Q 3.49; V 3.42; S 3.29; C 2.7; D 3.9; N 3.5; W 2.12; Y 2.33; A 3.37; H 3.25; F 2.2; G 2.7; K 3.09; E 4.11; M 3.27; I 2.46
F15: Y 2.61; G 3.24; T 3.74; H 3.34; E 3.46; A 2.93; R 3.37; D 3.62; L 3.44; C 2.61; Q 3.35; N 3.44; V 3.1; W 2.68; M 3.12; I 3.23; S 3.45; K 3.11
L13: Y 2.62; V 3.25; A 3.43; K 2.74; G 3.42; N 3.12; F 2.18; M 3.15; E 3.86; I 2.77; H 3.4; R 3.45; Q 3.32; S 3.54; W 1.59; T 3.56; D 3.94; C 3.01
T21: R 2.8; S 2.52; D 3.35; N 3.15; H 2.69; W 2.15; F 2.28; K 3.09; G 2.68; L 2.37; A 2.6; I 2.79; V 2.7; Q 2.46; E 3.68; Y 2.65; M 2.46; C 3.05
P16: F 2.24; G 2.69; V 1.8; D 3.05; Q 2.6; W 2.48; I 1.62; L 1.57; A 2.68; E 3.48; N 2.9; S 2.4; Y 2.03; T 1.74; K 2.26; M 2.15; R 2.19; C 2.08; H 2.61

— the supplement of paper PMC10567573
